Data reported in patent US8030043B2, “β-galactoside-α2,3-sialyltransferase, a gene encoding thereof, and a method for producing thereof” (Japan Tobacco Inc., priority 2005, dated 2011).

B1: ISH467-N0C0 first clone: E. coli-expressed full-length JT-ISH-467 sialyltransferase with Asn to Ser change at position 190 of SEQ ID NO: 2 (protein, listed as Photobacterium phosphoreum)
chain: MFVFCKKIFFLIFISLMILGGCNSDSKHNNSDGNITKNKTIEVYVDRATLPTIQQMTQIINENSNNKKLISWSRYPINDETLLESINGSFFKNRPELIKSLDSMILTNEIKKVIINGNTLWAVDVVNIIKSIEALGKKTEIELNFYDDGSAEYVRLYDFSRLPESEQEYKISLSKDNIQSSINGTQPFDSSIENIYGFSQLYPTTYHMLRADIFETNLPLTSLKRVISNNIKQMKWDYFTTFNSQQKNKFYNFTGFNPEKIKEQYKASPHENFIFIGTNSGTATAEQQIDILTEAKKPDSPIITNSIQGLDLFFKGHPSATYNQQIIDAHNMIEIYNKIPFEALIMTDALPDAVGGMGSSVFFSLPNTVENKFIFYKSDTDIENNALIQVMIELNIVNRNDVKLISDLQ
B2: ISH467-N0C0 second clone: E. coli-expressed full-length JT-ISH-467 sialyltransferase, nucleotide sequence of SEQ ID NO: 1, no change (protein, listed as Photobacterium phosphoreum)
chain: MFVFCKKIFFLIFISLMILGGCNSDSKHNNSDGNITKNKTIEVYVDRATLPTIQQMTQIINENSNNKKLISWSRYPINDETLLESINGSFFKNRPELIKSLDSMILTNEIKKVIINGNTLWAVDVVNIIKSIEALGKKTEIELNFYDDGSAEYVRLYDFSRLPESEQEYKISLSKDNIQSSINGTQPFDNSIENIYGFSQLYPTTYHMLRADIFETNLPLTSLKRVISNNIKQMKWDYFTTFNSQQKNKFYNFTGFNPEKIKEQYKASPHENFIFIGTNSGTATAEQQIDILTEAKKPDSPIITNSIQGLDLFFKGHPSATYNQQIIDAHNMIEIYNKIPFEALIMTDALPDAVGGMGSSVFFSLPNTVENKFIFYKSDTDIENNALIQVMIELNIVNRNDVKLISDLQ
modifications: CDS (1)..(1230) /gene=“467-23ST” /product=“Beta-galactoside- alpha 2,3-sialyltransferase”
B3: ISH467-N2C0 first clone: JT-ISH-467 sialyltransferase lacking signal peptide region, Phe replaced by Ser at position 159 (protein, listed as Photobacterium phosphoreum)
chain: MFVFCKKIFFLIFISLMILGGCNSDSKHNNSDGNITKNKTIEVYVDRATLPTIQQMTQIINENSNNKKLISWSRYPINDETLLESINGSFFKNRPELIKSLDSMILTNEIKKVIINGNTLWAVDVVNIIKSIEALGKKTEIELNFYDDGSAEYVRLYDSSRLPESEQEYKISLSKDNIQSSINGTQPFDNSIENIYGFSQLYPTTYHMLRADIFETNLPLTSLKRVISNNIKQMKWDYFTTFNSQQKNKFYNFTGFNPEKIKEQYKASPHENFIFIGTNSGTATAEQQIDILTEAKKPDSPIITNSIQGLDLFFKGHPSATYNQQIIDAHNMIEIYNKIPFEALIMTDALPDAVGGMGSSVFFSLPNTVENKFIFYKSDTDIENNALIQVMIELNIVNRNDVKLISDLQ
modifications: lacks signal peptide; cited entry is nucleotide; CDS (1)..(1230) /gene=“467-23ST” /product=“Beta-galactoside- alpha 2,3-sialyltransferase”
B4: FAJ-N0C0 first clone: E. coli-expressed full-length JT-FAJ-16 sialyltransferase, nucleotides 1 to 1209 of SEQ ID NO: 30 (protein, listed as Vibrio sp.)
chain: MKNIITKRMLIILSSLFTIIGCNNDNSTTTNNNAIEIYVDRATLPTIQQMTKIVSQKTSNKKLISWSRYPITDKSLLKKINAEFFKEQFELTESLKNIILSENIDNLIIHGNTLWSIDVVDIIKEVNLLGKNIPIELHFYDDGSAEYVRIYEFSKLPESEQKYKTSLSKNNIKFSIDGTDSFKNTIENIYGFSQLYPTTYHMLRADIFDTTLKINPLRELLSNNIKQMKWDYFKDFNYKQKDIFYSLTNFNPKEIQEDFNKNSNKNFIFIGSNSATATAEEQINIISEAKKENSSIITNSISDYDLFFKGHPSATFNEQIINAHDMIEINNKIPFEALIMTGILPDAVGGMGSSVFFSIPKEVKNKFVFYKSGTDIENNSLIQVMLKLNLINRDNIKLISDI
modifications: CDS (1)..(1209) /gene=“FAJ16-23ST” /product=“Beta-galactoside- alpha 2,3-sialyltransferase”

Legend:
Assay type in all cases: biochemical
[1] = test system: β-galactoside-α2,3-sialyltransferase from Photobacterium phosphoreum JT-ISH-467; experiment: Determination of binding mode of sialic acid using pyridylaminated sugar chain, HPLC; settings: acceptor 2.0 μM, CMP-NeuAc 5.7 μM, enzyme 20 mU/ml, pH 6.0, 25° C., 3 hours
Protocol: (§1) Using the enzyme obtained in Example 2, the enzymatic reaction was carried out using a pyridylaminated sugar chain as a glycosyl acceptor substrate. The pyridylaminated sugar chain used for analysis was pyridylaminated lactose (Galβ1-4Glc-PA, Takara Bio Inc., Japan). The glycosyl acceptor substrate, CMP-NeuAc and the enzyme were dissolved at 2.0 μM, 5.7 μM and 20 mU/ml, respectively, in 25 μl of 20 mM cacodylate buffer (pH 6.0), and then reacted at 25° C. for 3 hours. After the reaction, the reaction solution was treated at 100° C. for 2 minutes to inactivate the enzyme, followed by HPLC to analyze the reaction product.
The HPLC system used was Shimadzu LC10A (Shimadzu Corporation, Japan) and the analytical column used was Takara PALPAK Type R (Takara Bio Inc., Japan). The column which had been equilibrated with 100 mM acetate-triethylamine (pH 5.0) containing 0.15% N-butanol was injected with the reaction solution diluted with Eluent A (100 mM acetate-triethylamine, pH 5.0). […] The analysis was performed under the following conditions: flow rate: 1 ml/min, column temperature: 40° C., detection: fluorescence (Ex: 320 nm, Em: 400 nm).

[2] = Confirmation of α2,3 sialyltransferase activity of E. coli-expressed enzyme with pyridylaminated lactose, HPLC; settings: pyridylaminated lactose 2.0 μM, CMP-sialic acid 5.7 μM, pH 6.0, 25° C., 6 hours
Protocol: as §1
The HPLC system used was Shimadzu LC10A (Shimadzu Corporation, Japan) and the analytical column used was Takara PALPAK Type R (Takara Bio Inc., Japan). The column which had been equilibrated with 100 mM acetate-triethylamine (pH 5.0) containing 0.15% N-butanol was injected with the reaction solution diluted with Eluent A (100 mM acetate-triethylamine, pH 5.0). For elution of the pyridylaminated sugar chain, Eluent A (100 mM acetate-triethylamine, pH 5.0) and Eluent B (100 mM acetate-triethylamine containing 0.5% n-butanol, pH 5.0) were used to successively elute the pyridylaminated sugar chain with a linear gradient of 30% to 100% Eluent B (0 to 35 minutes) and then 100% Eluent B (35 to 50 minutes). The analysis was performed under the following conditions: flow rate: 1 ml/min, column temperature: 40° C., detection: fluorescence (Ex: 320 nm, Em: 400 nm).
As in the case of Example 3, pyridylaminated lactose (Galβ1-4Glc-PA, PA-Sugar Chain 026, Takara Bio Inc., Japan) was used as a glycosyl acceptor to carry out the enzymatic reaction. After the reaction, the reaction solution was heated at 95° C. for 5 minutes to inactivate the enzyme, followed by HPLC analysis. It should be noted that the enzymatic reaction was accomplished at 25° C. for 6 hours using pyridylaminated lactose and CMP-sialic acid dissolved at 2.0 μM and 5.7 μM, respectively, in 25 μl of 20 mM cacodylate buffer (pH 6.0) (Reaction 1). On the other hand, a control experiment (Reaction 2) was carried out using a reaction solution free from CMP-sialic acid. Further, to clarify the retention time of standards, the crude enzyme solution was inactivated by thermal treatment (95° C., 5 minutes) and tested in the presence of pyridylaminated lactose and pyridylaminated α2,3-sialyllactose (pyridylaminated 3′-sialyllactose) (Neu5Acα2-3Galβ1-4Glc-PA, PA-Sugar Chain 029, Takara Bio Inc., Japan).

[3] = Sialyltransferase activity in E. coli homogenate (crude enzyme solution), transfer of 14C-NeuAc from CMP-NeuAc to lactose; settings: lactose acceptor; for Radioactivity (cpm) Average: average of duplicate; for Sialyltransferase activity in crude enzyme solution (in words): CMP-14C-NeuAc donor
Protocol: Sialyltransferase activity was measured as described in J. Biochem., 120, pp. 104-110 (1996) (which is hereby incorporated by reference in its entirety). More specifically, the enzymatic reaction was accomplished by using CMP-NeuAc (70 nmol, containing 25000 cpm CMP-NeuAc in which NeuAc was labeled with ^14C, 356 cpm/nmol; NeuAc represents N-acetylneuraminic acid) as a glycosyl donor substrate, lactose (1.25 μmol) as a glycosyl acceptor substrate, NaCl added to give a concentration of 0.5 M, and the enzyme-containing reaction solution (30 μl) prepared as described above. The enzymatic reaction was carried out at 25° C. for 10 to 30 minutes. After completion of the reaction, 1.97 ml of 5 mM phosphate buffer (pH 6.8) was added to the reaction solution, which was then applied to a Dowex 1×8 (PO4^3− form, 0.2×2 cm, BIO-RAD) column. The radioactivity was measured for the reaction product, i.e., sialyllactose contained in the eluate (0 to 2 ml) from this column to calculate the enzyme activity.
An induction experiment of protein expression was performed on the two 467-N0C0 clones and the three 467-N2C0 clones obtained in (4) above. A single colony of E. coli TB1 having the expression vector pTrc99A carrying each clone was inoculated into LB medium (5 ml) containing an antibiotic, ampicillin (final concentration 100 μg/mL), and pre-cultured at 30° C. to about A600=0.5, followed by addition of IPTG (isopropyl-β-D(−)-thiogalactopyranoside, Wako Pure Chemical Industries, Ltd. Japan) at a final concentration of 1 mM. After culturing with shaking at 30° C. for an additional 4 hours, the cells in 2 ml culture solution were collected by centrifugation. These cells were suspended in 200 μl of 20 mM BisTris buffer (pH 7.0) containing 0.336% Triton X-100 and 0.5 M sodium chloride, and ultrasonically homogenized under ice cooling. The resulting homogenate was defined as a crude enzyme solution and provided for activity measurement. The reaction was carried out in duplicate, and the reaction composition was the same as shown in Example 1, except that the reaction time was set to 15 hours.
In the same manner as shown in Example 5(5), an induction experiment of protein expression was performed on 2 clones, i.e., the first clone of ISH224-N0C0 and the first clone of ISH224-N1C0 to measure their enzyme activity.
In the same manner as shown in Example 5(5), an induction experiment of protein expression was performed on 3 clones, i.e., the first clone of FAJ-N0C0 as well as the first and second clones of FAJ-N1C0 to measure their enzyme activity.

[4] = JT-ISH-467 gene clones, 25° C., reaction time 15 hours
[5] = JT-FAJ-16 gene clones, as Example 5(5)

Molecule	Reaction product from pyridylaminated sugar chain (binding mode of sialic acid) [1]	α2,3 sialyltransferase activity (formation of pyridylaminated α2,3-sialyllactose) [2]	Radioactivity (cpm) Round 1 [3, 4] [cpm]	Radioactivity (cpm) Round 2 [3, 4] [cpm]	Radioactivity (cpm) Average [3, 4] [cpm]	Sialyltransferase activity in crude enzyme solution (in words) [3]	Radioactivity (cpm) Round 1 [3, 5] [cpm]	Radioactivity (cpm) Round 2 [3, 5] [cpm]	Radioactivity (cpm) Average [3, 5] [cpm]
OC[C@@H](O)[C@@H](O[C@@H]1O[C@H](CO)[C@H](O)[C@H](O)[C@H]1O)[C@H](O)[C@@H](O)CNc1ccccn1 [PA-Sugar Chain 026, pyridylaminated lactose]	pyridylaminated α2,3-sialyllactose (pyridylaminated 3′-sialyllactose) was synthesized								
B1		found to have α2,3 sialyltransferase activity	8496	7486	7991	sialyltransferase activity in both crude enzyme solutions			
B2		found to have α2,3 sialyltransferase activity	7097	7809	7453	sialyltransferase activity in both crude enzyme solutions			
B3		had α2,3 sialyltransferase activity	10514	9033	9773.5	sialyltransferase activity was also observed			
B4		a peak of pyridylaminated α2,3-sialyllactose (pyridylaminated 3′-sialyllactose) was detected				sialyltransferase activity was observed	11012	12056	11534
